According to FireProtDB (doi:10.1021/bi00236a021):
Values joined by “and” are separate entries in the source; they are usually repeats but may differ in a detail not shown here. Equal entries are not always repeated.

Details: Escherichia coli (strain K12), whole UniProt chain shown
[1] = pH 7, Thermal, CD, Potassium phosphate 10 mM
[2] = pH 8, 30 °C, GdnHCl, Fluorescence, Tris-HCl 50 mM

B1: Glutaredoxin 1 wild type, P68688 (protein)
chain: MQTVIFGRSGCPYCVRAKDLAEKLSNERDDFQYQYVDIRAEGITKEDLQQKAGKPVETVPQIFVDQQHIGGYTDFAAWVKENLDA
In the case of B1, the unfolding free energy (pH 7, 25 °C, Thermal, CD, Potassium phosphate 10 mM) is reported as 4.7 kcal/mol, the unfolding free energy (pH 7, 30 °C, Thermal, CD, Potassium phosphate 10 mM) is reported as 4.1 kcal/mol and 5 kcal/mol and the Tm [1] is reported as 55 °C and 57 °C. The “unfolding enthalpy (van 't Hoff)” value [1] was 67 kcal/mol and 75 kcal/mol, the “denaturant midpoint (higher = more stable)” value [2] was 2 M and the unfolding free energy [2] was 4.2 kcal/mol and 6.1 kcal/mol.
